Non-standard residues stand in square brackets, D forms with d. *: point of attachment. Biotin = O=C1N[C@H]2[C@H](CS[C@H]2CCCCC(=O)*)N1; pS = N[C@@H](COP(=O)(O)O)C(=O)O; linker = not defined here
B1: LC3C (for BLI) (natural protein, human, UniProt Q9BXW4 1-126, looked up)
chain: MPPPQKIPSVRPFKQRKSLAIRQEEVAGIRAKFPNKIPVVVERYPRETFLPPLDKTKFLVPQELTMTQFLSIIRSRMVLRATEAFYLLVNNKSLVSMSATMAEIYRDYKDEDGFVYMTYASQETFG
notes: human LC3C in the pAL plasmid (GST, 3C site)
B5: GABARAP (for BLI) (natural protein, human, UniProt O95166 1-117, looked up)
chain: MKFVYKEEHPFEKRRSEGEKIRKKYPDRVPVIVEKAPKARIGDLDKKKYLVPSDLTVGQFYFLIRKRIHLRAEDALFFFVNNVIPPTSATMGQLYQEHHEEDFFLYIAYSDESVYGL
notes: human GABARAP in the pAL plasmid (GST, 3C site)

Assays:
Assay in all cases: BLI; biotinylated LIR peptide immobilized on streptavidin biosensor, ATG8 in solution; 25 mM Tris pH 7.5, 150 mM NaCl, 0.5 mM TCEP, 0.1% Tween20, 1 mg/ml BSA; 25 °C; Kd from response against concentration
Settings in all cases: both partners purified
[1] = biological target: T1, SCOC pS12/pT15 LIR peptide (human, phosphoserine at 12; phosphothreonine at 15; biotin-linker on the N-terminus; C-terminal amide)
T1 construct: SCOC isoform 3 aa 6-25; also called S12/T15^SCOC; source: synthetic peptide
T1 peptide: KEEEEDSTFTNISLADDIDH

SCOC aa 6–18 LIR peptide = biological target: T2, SCOC aa 6–18 LIR peptide (human, reading uncertain)
T2 construct: SCOC isoform 3 aa 6-18; source: synthetic peptide
T2 peptide: {Biotin-linker}-KEEEEDSTFTNIS-NH2

[2] = biological target: T3, SCOC aa 11–25 LIR peptide (human, reading uncertain)
T3 construct: SCOC isoform 3 aa 11-25; also called SCOC LIR motif (aa 11–25); source: synthetic peptide
T3 peptide: {Biotin-linker}-DSTFTNISLADDIDH-NH2

LC3B (for BLI) = LC3B (for BLI) (human, UniProt Q9GZQ8 1-120)
LC3A (for BLI) = biological target: T4, LC3A (for BLI) (human, UniProt Q9H492 1-121)
T4 construct: human LC3A in the pAL plasmid (GST, 3C site)

GABARAPL1 (for BLI) = biological target: T5, GABARAPL1 (for BLI) (human, UniProt Q9H0R8 1-117)
T5 construct: human GABARAPL1 in the pAL plasmid (GST, 3C site)

LC3C (for BLI) = biological target: B1
GABARAPL2 (for BLI) = biological target: T6, GABARAPL2 (for BLI) (human, UniProt P60520 1-117)
T6 construct: human GABARAPL2 in the pAL plasmid (GST, 3C site)

GABARAP (for BLI) = biological target: B5
SCOC pS12 LIR peptide = biological target: T7, SCOC pS12 LIR peptide (human, phosphoserine at 12; biotin-linker on the N-terminus; C-terminal amide)
T7 construct: SCOC isoform 3 aa 6-25; source: synthetic peptide
T7 peptide: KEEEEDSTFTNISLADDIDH

T6 sequence (P60520 whole entry): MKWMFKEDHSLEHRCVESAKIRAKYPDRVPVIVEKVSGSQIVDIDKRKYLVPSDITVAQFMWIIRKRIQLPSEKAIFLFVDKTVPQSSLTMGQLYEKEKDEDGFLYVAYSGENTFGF

B1
fold increase in affinity over SCOC WT LIR peptide [1]: 21 fold | fold decrease in affinity against SCOC WT LIR peptide (SCOC aa 6–18 LIR peptide): 22 fold | fold decrease in affinity against SCOC WT LIR peptide [2]: 16 fold

B2: SCOC WT (aa 6–25) LIR peptide (peptide)
peptide: {Biotin-linker}-KEEEEDSTFTNISLADDIDH-NH2
modifications: reading uncertain
notes: SCOC isoform 3 aa 6-25; also called SCOC (WT) LIR domain peptide; SCOC LIR; source: synthetic peptide
Kd (LC3B (for BLI)): 270 µM | Kd (LC3A (for BLI)): 27.8 µM | Kd (GABARAPL1 (for BLI)): 2.3 µM | Kd (LC3C (for BLI)): 8.7 µM | Kd (GABARAPL2 (for BLI)): 44.4 µM | Kd (GABARAP (for BLI)): 3.6 µM

B3: SCOC aa 6–20/pS18 LIR peptide (peptide)
peptide: {Biotin-linker}-KEEEEDSTFTNI[pS]LA-NH2
modifications: reading uncertain
notes: SCOC isoform 3 aa 6-20; source: synthetic peptide
binding result (LC3A (for BLI)): binds | binding result (GABARAPL1 (for BLI)): binds | binding result (LC3C (for BLI)): binds | binding result (GABARAP (for BLI)): binds

B4: SCOC aa 6–20 LIR peptide (peptide)
peptide: {Biotin-linker}-KEEEEDSTFTNISLA-NH2
modifications: reading uncertain
notes: SCOC isoform 3 aa 6-20; also called SCOC LIR motif (aa 6–20); source: synthetic peptide
binding result (GABARAPL1 (for BLI)): binds | binding result (LC3C (for BLI)): binds | binding result (GABARAP (for BLI)): binds

B5
fold increase in affinity over SCOC WT LIR peptide (SCOC pS12 LIR peptide): 2 fold | fold decrease in affinity against SCOC WT LIR peptide (SCOC aa 6–18 LIR peptide): 4 fold | fold decrease in affinity against SCOC WT LIR peptide [2]: 37 fold

Reference: publication PMC8202330, “Phosphorylation of the LIR Domain of SCOC Modulates ATG8 Binding Affinity and Specificity” (Journal of Molecular Biology, 2021)
